The DeepSol protein solubility set

Assay: soluble on expression in E. coli; label from the status in PepcDB or PDB records
With “MGSDKIHHHHHHLRTNTVKVALVGCGRIAGHHARSIVATDGVQLAAVCDLAEDKALAYSNEFGVPSYTDYRRMLAEHPEISVVAVITPSGMHSEHGLEMMERFGKHIILEKPTMMRPEQLVHAWGVADRLNLSIFPVFQNRHNKAVTRVRQALAAGELGEIRIMSVRVRWCRPQRYYDLAPWRGTFSHDGGALTNQGIHHVDLLRHLGGEVDQVSATMRTLGADIEVEDTVVATMRYRSQAVGVLEVTTAARPDDFEASISIVGEKGLAQIGGIAVNELQVFTPDPAACAANSEDFKSFEGNGAVYGFGHSQMYRDIAAHFHQGKAYPVSREDCLGTLKLLHAFYRSDEAAGGWVDVDSPEQSTRLGRPDDAISNLYRTPLHG” the “soluble on expression in E. coli” value was “not soluble”.
In the case of “MKTLTTERLILRLVSVDDAPFILELYNHPDFYRFVGDKQMRTDYEAVRYIKENMLRMEEKKGVSLLVVEDKQTKQPLGICGLVKRDTLNAYDIGYGFLPSAYGQGFAIEAAKAVIEYAKQAMQLSQLLAITNNDNIRSISLLKKLGFEFEHVEQQYDNGRTLELYTLQL”, the “soluble on expression in E. coli” value is reported as “not soluble”.
In the case of “MLLALKGIRKVYRMGEVAFSALKGVDLEVEEGEMLAIMGPSGSGKSTLLHILGLLDRPTEGEYVLMDRPTSRLAEDERAFLRNRFLGFVFQAFFLLPRLSALENVEVPLAYAGVPPGTRRRRALELLERVGLLEKANNLPNQLSGGQRQRVAIARALALNPPLLLADEPTGALDTRTGEEILALFQELNREGTTVILVTHEPHVAEKTNRIVRVLDGEIVADERRHHG”, the “soluble on expression in E. coli” value is reported as “soluble”.
With “MKRVGKQTWVFDEDIYIRAAATAVGPLEADGPLGGYFDIWHRDLYCGEETWELAERRLMSEAVARCLQKAGVSAHDVDLFLAGDLLNQNATSNYVARELPIPFLCLFGACSTSMQTLAAAAAFVAGGLADTALVATSSHNATAERQFRYPTELGVQKPKTATFTVTGAGAALVGRTPGRWRIRAATIGKVIDAGLTNPLDMGAAMAPAAADTIEQHFRDLGTSPSDYDLIVTGDLSRVGSVIVRELLAESGYDISDVYNDCGLMIYRPDQKVFAGGSGCACSAVVTYGYLFHELDRGTFHRLFVVATGALLSQTMVQQKQSIPAVAHGVVIEAAKLEHHHHHH” the “soluble on expression in E. coli” value was “not soluble”.
In the case of “MGSDKIHHHHHHMRMPEMMFLQGNEACALGAIKAGCRFFAGYPITPSTEIAEVMARELPKVGGVFVQMEDEIASAAAVVGASLAGVKSMTATSGPGFSLIQEVIGYAIMTETPCVFANVMRLGPSTGLPTKPAQGDIMQTRWGTHGDHAIIALYPSSVAEVYRYIITAFNLAEEYRTPVVFLMDAMLGHMRESFYPPKDEELFIIERLKDTSFGEEDLFVPFSESEYAEPTPFPMAEMGKTKFHVSGLVHDESGFPLSSPDAAEKLIRRLTNKIRLHADEIAFYEEYETEDAEILVVAYGIVARSAMKAVKIARRDRIKVGLFKPITIWPAPVSRFRKLAEKVNTIVIAEMNLGQYAKELISSIDRRSKVIRTINKVNGELIKPEEILDVITETQIEI”, the “soluble on expression in E. coli” value is reported as “not soluble”.
In the case of “MSLWHGVIVATSLPFDDDLSVDFGAYGESVAHLAAQGMHGVAPNGSLGEYQTLTYEERDRVVETAVANAPEGFTVMPGVGAYGGREAERHARFAKDAGCQAVMCLPPNAYRADDRAVLQHFERVASVGLPVTAYNNPIDTKVDLRPDLLAKLHAEGYIVGVKEFSGDVRRCYEISELAPGLDLMIGTDDTVLEVALAGAKGWVAGYPQVFPRACLALYEASVRGDLEAALPLYRQLHPVLRWDSKTEFVQAIKLGQELTGRRGGPCRPPRQPLAPETEAVVRAATQALVDAGVNEGHHHHHH”, the “soluble on expression in E. coli” value is reported as “soluble”.
For “MYRFLSGIKVVEIAGLAPVPHCGMMLADFGADVTVIDKKNPAIEQRLNRGKTMKQLDLKNPEDIKKVRDLCQTSDVLLDPYRPGTLEKMGLDPSTLWNNNKGLIICKISGYGQTGRMSQETGHDINYVALSGMLPTFSGVNATRPWPPANMLADFAGGGLSAAFGILSAIYARSHNGGKGCLLDCSMTEGVAYLSSFVQHYYDQPNLFTDKYALFSGECPIYRTYKTKDDKFVAVGAVEPKFYQNLFKLLNVDGRDLFVNPGKITEDLESRFLQKTRDKWANIFKGQECCVTPVLDIHEVGSYGQHVDRNSFTKTSSNWIANPSPRVWTQDELAALSSKK”, the “soluble on expression in E. coli” value was “not soluble”.
With “MVIEVPQTERVNDVDVFLSTQDGQIQRPKGPNCRHPVRQKCTNCLPVDPFDEEYLKEKDIKHMSFHAHVRKLLGSQGKGTTLKKPLENFRCSLKPNCDAHKPFPKGICTKCKPQVVTLNRQKFRHVDNIQIENQELVNQFLDYWRLSGHQRVGFLIGQYQPHLEVPLGIKATVAAIYEPPQHCREDGIEFLEDKNQKTIDNLLEMLGLQRVGWIFTDCWTANSAEGTVHYTRHKDSFFLSAEECITAAMLQNQHPNITEYSMDRHYGSKFVTVVASGDESMHVNFHGYQVSNQCAAMVEADILCPTLYTPELAYVRETPLSEEHYITDVQFSMKNEYGAEVMKNGRPLPVEYLLVDVPAGMPKEPHYTFHVGTSNKSKSAKFNVENRQAIGQLQGGANLIQYSSEFSTNQFLEQATNFHFLLYLVTNDQVQISDEWMKRLCDAVKAQDRGTAMEWAQECEDWHQLMALAHANGGSGNDDIPVIPNGDPFSGSSSGGSRGAVWSCGHCTFQNEAGRQDCSMCGLPAAD” the “soluble on expression in E. coli” value was “not soluble”.
In the case of “LKASGVQAQMAKQQEQDPTNLYISNLPLSMDEQELENMLKPFGQVISTRILRDSSGTSRGVGFARMESTEKCEAVIGHFNGKFIKTPPGVSAPTEPLLCKF”, the “soluble on expression in E. coli” value is reported as “soluble”.
In the case of “MNTREVELRGHIIDSLILPRALDIIMDMGGDFQILEIDIGKRKSDPSHARILVEAETPSLLNQILDELGEIGASIAEIKEAELRRAPMDRVLPDDFYSTTNHQTFIYHGGEWVEVEGIEMDCMIVVDPESRTARCKPIREIKKGDLVVVGREGIKVVPPERPRGKQGVFEFMGSEVSSEKPLVTTIKKIASEITEIKKRGGRIGLVGGPAIVHTGSAPVIAEMIRLGFIDVLFAGNALATHDIECALYGTSLGVDIDRGEAVSRGHRHHINAINEINRAGSIRDAVEQGVLTSGIMYECVKNDVPFVLAGSIRDDGPLPDVITDVMEAQNEMRKYVQDLDMVIMIATMLHSIATGNILPSRVKTICVDINPATVTKLSDRGSSQAVSVVTDVGAFIPILLHEIKKMNGLGDLEHHHHHH”, the “soluble on expression in E. coli” value is reported as “soluble”.
In the case of “MIELEGVPELIDPVMVAAFEGWNDAGDAASTAVAHLDREWKGEVFAALDAEDYYDFQVNRPTVWLDGGVRKITWPTTRLSVVRVGGEKPRDLVLVRGIEPSMRWRSFCNELLAFAHELGVELVVVLGALLGDTPHTRPVPVSGVTSDPDLARTMDLEETKYEGPTGIVGILQEACTHAGVPAVSLWAAVPHYVSQPPNPKATLALLNRLEDLIDVRIPLGELPEDARAWQVGVDQLAAEDSEVAEYVQSLEEARDTAELPEASGEAIAREFERYLRRRDGGGPAAGGHATADGSDGTSYLRDAPGGRTRPPKPPKPEAEDDGPADEGSDDSSED”, the “soluble on expression in E. coli” value is reported as “not soluble”.
In the case of “MSLLSKDIKLLPGSKVEVVIRVSKNVIQEKYNSLLQDYSSRLKIQGFRIGKVPINVIENKYSEGLKATVLEEVINNSFKEFFKEESKIPLSYATPTVKEKNLKLNLDKDFEFTFTYETYPEFKIPSFDEIDIKVEIPEVFIDDSDIDDEIKNLQIENSIIIEDEEGVVKEDSIVKVDFVELDDLSNEIVSTKRQGFVFTVGKSETYYDFDKDVIGMRINEERVIEKSYIADYKFEELAGSSRKLKIKIKSIKKRDLPLIDDEFAQDISDKYNTLDDLKNFIRSSLLNIVEEKKETLKLNKFFSTISEKLEIDIPHSMIEAEIEIAFKDAKRQNKNNMSLEEFKSIFYSSGYIGGDNLKDEILGNLKSKLIMQKMVDLDPIKVTESDVEDEMARQSKNLGVSYEEIKKFYEDQNLISYLKDDIKRERAKKKILENLKEVKGKKLNFRDFVNYKIEGHHHHHH”, the “soluble on expression in E. coli” value is reported as “soluble”.
With “MPAFDKPKVELHVHLDGSIKPETILYYGRRRGIALPANTAEGLLNVIGMDKPLTLPDFLAKFDYYMPAIAGCREAIKRIAYEFVEMKAKEGVVYVEVRYSPHLLANSKVEPIPWNQAEGDLTPDEVVALVGQGLQEGERDFGVKARSILCCMRHQPNWSPKVVELCKKYQQQTVVAIDLAGDETIPGSSLLPGHVQAYQEAVKSGIHRTVHAGEVGSAEVVKEAVDILKTERLGHGYHTLEDQALYNRLRQENMHFEICPWSSYLTGAWKPDTEHAVIRLKNDQANYSLNTDDPLIFKSTLDTDYQMTKRDMGFTEEEFKRLNINAAKSSFLPEDEKRELLDLLYKAYGMPPSASAGQNLAENLYFQ” the “soluble on expression in E. coli” value was “soluble”.
For “GAMGDIDERNIFFELFDRYKLDKFSTWSLQSKKIENDPDFYKIRDDTVRESLFEEWCGE”, the “soluble on expression in E. coli” value was “soluble”.
For “MAHHHHHHMNFLRRNAANLCKGKVLGKHLNCSVHELTNLNKRKISNITDLGKCGQRYQATHSGSTIGAKRFASSEAQKLSEVVKAEVQHEKSNYEAPDNIKKFLQTSGWKFEEQEGDVNMVLTKNVDGMKIIIDFQLVSPFQAEGENEAQAEMTDFSVTVEKPNKQGGITFYCTTLQNDEKFRYMIGNVKYYKNEEGKNSVSAYNGPEFEDLDDSLQTSLDEWLANLGVDSELCDFIDSCSIDKEQREYMSWLQNISNFIES”, the “soluble on expression in E. coli” value was “not soluble”.
In the case of “MPLEASELKPTAGPLEASELKPTAGPLEASELKPTAGPLEASELKPTAGPLEASELKPTAGPLEASELKPTAGPLEASELKPTAGMFKNAKEFVQYANKLKTLREKKLNGVSIYVCVGTGCTAKGALKVYSAFEEELKKRNLLGQVTLEKIDDDKVTLNRTGCCGRCSSGPLVKIMPYRFFYSNVAPEDVPEIVDRTVLKGEPIERLFLTDPLTGEKVPRIEDTTLFKNQDFYIMEAIGESECDSIEDYIARSGYESLVKALTSMTPEEIIETVKASGLRGRGGGGFPTGLKWEFTRKAQGDIKFVVCNGDEGDPGAFMNRTLLERDPHLVLEGMIIAGYAVGAQKGYAYIRAEYPFAVKMFKKAIEDARKLGLLGENILGTGFSFDLEVKEGAGAFVCGEETALLASIEGKRGMPRPKPPFPAQSGLWGKPTLINNVETYANIPRILRDGVENYRKRGTENSPGTKMFSVAGPLKATGIIEVEFGTTLRDIIYNICGGFVEGEEFKAVQIGGPSGACLSEDFIDMPLDYDTLKKADAMVGSGGIVVITKKTCMVEVARFFLDFTKRESCGKCVPCREGTMQAYNILEKFTHGKATYEDLKTLEHLSKTIKTASLCGLGKTAPNPILSTLKLFREEYIAHIEGECPSGMCTAFKKYVINPDICKGCGLCARSCPQNAITGERGKPYTIDQEKCVKCGLCASKCPFKAIELVAAALEHHHHHH”, the “soluble on expression in E. coli” value is reported as “not soluble”.
With “GPGSMFHRTTPEEEVRKWTRSLRSEQRKIELQITKIRREEAKVKLSMKQAAKQNDQVVMRMLAKEMIRSRKAVNRMYASKAQMNSVSMQLQNQASQMKMSGSLKKSGEIMKEMNSLVKVKEVQQSMMAMSKEMVKAGLIDEIMNDTIDEALDDDISDTELEDEVNKVVMDVVQGQMDGARVGASRIPAQQQQQQETAEEEEDELMEKLNALRNS” the “soluble on expression in E. coli” value was “soluble”.
For “MGSDKIHHHHHHMKMDFKIRIAQQSDSAELRDLYKNTVLVVNRRDYSQDEVEDWASCGDDLSNIEEMIKTHYFIVAVNQLSQIVGFSSITPQGYLHSMFIHADFQGKGIATMLLEEIERYAITKGIIQITSEVSLTARPFFEKQKYVVKKEQKRQANKLNLTNFWMAKTLSVIKPYHGRIPACGVFCGGCPSYTRDEKICQGAEENKTRCEKCRTFYLCCVEKGITHCYQCHLFPCTKFKGFTKRWLKYGQDFIENQKFLKQVGEMEFLRFYNEKVTD”, the “soluble on expression in E. coli” value was “not soluble”.
In the case of “MPVFKRYMRSPRLKAKHVMSTPPVTIEVGRSIAEAARLMAERGVGSLIVVDKQGLVKGILTERDIINSLASGKACAEGKVEDIMSRNPIVASPDDDLEIIIEKMRDMNIRHIPVIDEDGRPLGMISVRDIIDLGVSALKLFVE”, the “soluble on expression in E. coli” value is reported as “soluble”.
